Patent publication US20170044545, “APTAMER FOR BONDING TO AUTOTAXIN AND INHIBITING BIOLOGICAL ACTIVITY OF AUTOTAXIN, AND USE FOR SAME” (RIBOMIC INC., published 2017)

B1: SEQ 16(2) (ssRNA)
RNA: UCUGAGGGAAACAGGUUUUGCUCCUCGGA
modifications: 2'-F all pyrimidines and G8; 2'-OMe G4 A5 G6 G7 A9 A11 A13 G20 G27 G28 A29; 2'-OH A10 G14 G15
B2: SEQ 16(21) (mixed)
RNA: UCUGAGGGAAACAGGUUUUGCUCCUCGGA
modifications: 2'-F all pyrimidines; 2'-OMe G4 A5 G6 G7 A9 A11 A13 G20 G27 G28 A29; 2'-OH A10; dG8 dG14 dG15; 5' and 3' idT
B3: SEQ 16(66) (mixed)
RNA: UCUGAGGGAAACAGGUUUUGCUCCUCGGA
modifications: dT1; 2'-deoxy G8,G14,G15,C23,C26; 2'-OMe C2,U3,G4,A5,G6,G7,A9,A11,A13,G20,U22,C24,U25,G27,G28,A29; 2'-OH A10 with PS; other pyrimidines 2'-F; 5' 40 kDa PEG (GL2-400GS2)-ssH linker; 3' idT
B4: SEQ 16(60) (mixed)
RNA: UCUGAGGGAAACAGGUUUUGCUCCUCGGA
modifications: dT1; 2'-deoxy G8,G14,G15,C23,C26; 2'-OMe G4,A5,G6,G7,A9,A11,A13,U19,G20,G27,G28,A29; 2'-OH A10 with PS; other pyrimidines 2'-F; 5' and 3' idT
B5: SEQ 16(50) (mixed)
RNA: UCUGAGGGAAACAGGUUUUGCUCCUCGGA
modifications: 2'-deoxy G8,G14,G15,C23,C26; 2'-OMe G4,A5,G6,G7,A9,A11,A13,G20,G27,G28,A29; 2'-OH A10; other pyrimidines 2'-F; 5' 80 kDa PEG (GL2-800GS2)-ssH linker; 3' idT
B6: SEQ 16(58) (mixed)
RNA: UCUGAGGGAAACAGGUUUUGCUCCUCGGA
modifications: dT1; 2'-deoxy G8,G14,G15,C23,C26; 2'-OMe G4,A5,G6,G7,A9,A11,A13,G20,C21,G27,G28,A29; 2'-OH A10 with PS; other pyrimidines 2'-F; 5' and 3' idT
B7: SEQ 16(67) (mixed)
RNA: UCUGAGGGAAACAGGUUUUGCUCCUCGGA
modifications: dT1; 2'-deoxy G8,G14,G15,C23,C26; 2'-OMe C2,U3,G4,A5,G6,G7,A9,A11,A13,G20,C21,U22,C24,U25,G27,G28,A29; 2'-OH A10 with PS; other pyrimidines 2'-F; 5' 80 kDa PEG (GL2-800GS2)-ssH linker; 3' idT
B8: SEQ 16(52) (mixed)
RNA: UCUGAGGGAAACAGGUUUUGCUCCUCGGA
modifications: dT1; 2'-deoxy G8,G14,G15; 2'-OMe G4,A5,G6,G7,A9,A11,A13,G20,G27,G28,A29; 2'-OH A10; other pyrimidines 2'-F; 5' 80 kDa PEG (GL2-800GS2)-ssH linker; 3' idT
B9: SEQ 16(62) (mixed)
RNA: UCUGAGGGAAACAGGUUUUGCUCCUCGGA
modifications: dT1; 2'-deoxy G8,G14,G15,C23,C26; 2'-OMe G4,A5,G6,G7,A9,A11,A13,U18,G20,G27,G28,A29; 2'-OH A10 with PS; other pyrimidines 2'-F; 5' and 3' idT
B10: SEQ 16(51) (mixed)
RNA: UCUGAGGGAAACAGGUUUUGCUCCUCGGA
modifications: 2'-deoxy G8,G14,G15,C23,C26; 2'-OMe G4,A5,G6,G7,A9,A11,A13,G20,G27,G28,A29; 2'-OH A10 with PS; other pyrimidines 2'-F; 5' 80 kDa PEG (GL2-800GS2)-ssH linker; 3' idT
B11: SEQ 16(64) (mixed)
RNA: UCUGAGGGAAACAGGUUUUGCUCCUCGGA
modifications: dT1; 2'-deoxy G8,G14,G15,C23,C26; 2'-OMe G4,A5,G6,G7,A9,A11,A13,G20,G27,G28,A29; 2'-OH A10 with PS; other pyrimidines 2'-F; 5' 80 kDa PEG (GL4-800GS2)-ssH linker; 3' idT
B12: SEQ 16(54) (mixed)
RNA: UCUGAGGGAAACAGGUUUUGCUCCUCGGA
modifications: dT1,dC2,dT3; 2'-deoxy G8,G14,G15,C23,C24,C26; 2'-OMe G4,A5,G6,G7,A9,A11,A13,G20,G27,G28,A29; 2'-OH A10 with PS; other pyrimidines 2'-F; 5' 80 kDa PEG (GL2-800GS2)-ssH linker; 3' idT
B13: SEQ 16(53) (mixed)
RNA: UCUGAGGGAAACAGGUUUUGCUCCUCGGA
modifications: dT1; 2'-deoxy G8,G14,G15; 2'-OMe G4,A5,G6,G7,A9,A11,A13,G20,G27,G28,A29; 2'-OH A10 with PS; other pyrimidines 2'-F; 5' 80 kDa PEG (GL2-800GS2)-ssH linker; 3' idT
B14: SEQ 16(57) (mixed)
RNA: UCUGAGGGAAACAGGUUUUGCUCCUCGGA
modifications: dT1; 2'-deoxy G8,G14,G15,C23,C26; 2'-OMe G4,A5,G6,G7,A9,A11,A13,G20,U22,G27,G28,A29; 2'-OH A10 with PS; other pyrimidines 2'-F; 5' and 3' idT
B15: SEQ 16(59) (mixed)
RNA: UCUGAGGGAAACAGGUUUUGCUCCUCGGA
modifications: dT1; 2'-deoxy G8,G14,G15,C23,C26; 2'-OMe G4,A5,G6,G7,A9,A11,A13,U16,G20,G27,G28,A29; 2'-OH A10 with PS; other pyrimidines 2'-F; 5' and 3' idT
B16: SEQ 16(63) (mixed)
RNA: UCUGAGGGAAACAGGUUUUGCUCCUCGGA
modifications: dT1; 2'-deoxy G8,G14,G15,C23,C26; 2'-OMe G4,A5,G6,G7,A9,A11,A13,G20,G27,G28,A29; 2'-OH A10 with PS; other pyrimidines 2'-F; 5' 40 kDa PEG (GL2-400GS2)-ssH linker; 3' idT
B17: SEQ 16(61) (mixed)
RNA: UCUGAGGGAAACAGGUUUUGCUCCUCGGA
modifications: dT1; 2'-deoxy G8,G14,G15,C23,C26; 2'-OMe G4,A5,G6,G7,A9,A11,A13,U17,G20,G27,G28,A29; 2'-OH A10 with PS; other pyrimidines 2'-F; 5' and 3' idT
B18: SEQ 16(56) (mixed)
RNA: UCUGAGGGAAACAGGUUUUGCUCCUCGGA
modifications: dT1; 2'-deoxy G8,G14,G15,C23,C26; 2'-OMe G4,A5,G6,G7,A9,A11,A13,G20,C24,U25,G27,G28,A29; 2'-OH A10 with PS; other pyrimidines 2'-F; 5' and 3' idT

biological target: T1, Autotaxin (ENPP2, NPP2) (Homo sapiens, UniProt Q13822 Q13822:36-863); assay: SPR; not more than 10% of SEQ 4

Binder	binding result
GGAAACAGGUUUUGCUC (ssRNA, 2'-F pyrimidines, 2'-OH purines) [SEQ 23]	no binding

biological target: T1, Autotaxin (ENPP2, NPP2); assay: SPR

Binder	binding result
UCUGAGGGAAGCAGGUUUUGCUCCUCGGA (ssRNA, 2'-F pyrimidines, 2'-OH purines) [SEQ 35]	no binding
UCUGAGGGAACAGGUUUUGCUCCUCGGA (ssRNA, 2'-F pyrimidines, 2'-OH purines) [SEQ 37]	no binding
UCUGAGGGAUACAGGUAUUGCUCCUCGGA (ssRNA, 2'-F pyrimidines, 2'-OH purines) [SEQ 27]	no binding
UCUGAGGGAAACAGGUUUGCUCCUCGGA (ssRNA, 2'-F pyrimidines, 2'-OH purines) [SEQ 36]	no binding
UCUGAGGGAAUCAGGAUUUGCUCCUCGGA (ssRNA, 2'-F pyrimidines, 2'-OH purines) [SEQ 28]	no binding

biological target: T1, Autotaxin (ENPP2, NPP2); assay: inhibition

Binder	IC50
UCUGAGGGAAACAGGUUUUGCUCCUCGGA (ssRNA, as 16(4) with 5' 80 kDa PEG (GL2-800TS)-ssH linker instead of 5' idT) [SEQ 16(9)]	32 nM
UCUGAGGGAAACAGGUUUUGCUCCUCGGA (ssRNA, 2'-F all pyrimidines; 2'-OMe G4 A5 G6 G7 G27 G28 A29; other purines 2'-OH) [SEQ 16(1)]	17 nM
UCUGAGGGAAACAGGUUUUGCUCCUCGGA (mixed, as 16(21) with PS at A10) [SEQ 16(22)]	0.5 nM
UAGAGAUGGAAACAGGUUUUGCUCAUCUCA (ssRNA, 2'-F pyrimidines, 2'-OH purines) [SEQ 50]	21 nM
UCUGAGGGAAACAGGUUUUGCUCCUCGGA (mixed, as 16(4) with dT18) [SEQ 16(17)]	46 nM
UCUGAGGGAAACAGGUUUUGCUCCUCGGA (mixed, as 16(21) with dC23) [SEQ 16(29)]	3.3 nM
UCUGAGGGAACAGGUUUUGCUCCUCGGA (ssRNA, 2'-F pyrimidines, 2'-OH purines) [SEQ 37]	720 nM
UCUGAGGGAAACAGGUUUUGCUCCUCGGA (mixed, as 16(4) with dT19) [SEQ 16(16)]	45 nM
UCUGAGGGAAACAGGUUUUGCUCCUCGGA (ssRNA, as 16(4) with PS at A10) [SEQ 16(7)]	7.3 nM
UCUGAGGGAAACAGGUUUUGCUCCUCGGA (mixed, as 16(4) with dT1 dC2 dT3) [SEQ 16(10)]	21 nM
UCUGAGGGAAACAGGUUUUGCUCCUCGGA (mixed, as 16(4) with dG14) [SEQ 16(5)]	6.7 nM
UCUGAGGGAAACAGGUUUUGCUCCUCGGA (mixed, as 16(21) with dT25) [SEQ 16(27)]	3.2 nM
UCUGAGGGAAACAGGUUUUGCUCCUCGGA (mixed, as 16(4) with dT16) [SEQ 16(19)]	51 nM
UCUGAGGGAAACAGGUUUUGCUCCUCGGA (mixed, as 16(21) with dC26) [SEQ 16(26)]	2.1 nM
UCUGAGGGAAACAGGUUUUGCUCCUCGGA (mixed, as 16(4) with dG8) [SEQ 16(14)]	6.3 nM
UCUGAGGGAAACAGGUUUUGCUCCUCGGA (mixed, as 16(21) with dC24) [SEQ 16(28)]	2.7 nM
UCUGAGGGAAACAGGUUUUGCUCCUCGGA (ssRNA, as 16(1) + 5' and 3' idT) [SEQ 16(3)]	10 nM
UCUGAGGGAAACAGGUUUUGCUCCUCGGA (mixed, as 16(4) with dC23 dC24) [SEQ 16(12)]	37 nM

Binder	IC50
UCUGAGGGAAACAGGUUUUGCUCCUCGGA (mixed, as 16(4) with dT22) [SEQ 16(13)]	52 nM
UGGGAAGGAAACAGGUUUUGCUCUUCACC (ssRNA, 2'-F pyrimidines, 2'-OH purines) [SEQ 53]	30 nM
UCUGAGGGAAACAGGUUUUGCUCCUCGGA (mixed, as 16(21) with 5' 40 kDa PEG (GL2-400GS2)-ssH linker instead of 5' idT) [SEQ 16(24)]	7.4 nM
UCUGAGGGAAACAGGUUUUGCUCCUCGGA (mixed, as 16(4) with dT17) [SEQ 16(18)]	29 nM
UCUGAGGGAAACAGGUUUUGCUCCUCGGA (mixed, as 16(21) with dT1 dC2 dT3) [SEQ 16(25)]	2.3 nM
UUCGAGGGAAACAGGUUUUGCUCCUCAAA (ssRNA, 2'-F pyrimidines, 2'-OH purines) [SEQ 52]	59 nM
UCUGAGGGAAACAGGUUUUGCUCCUCGGA (mixed, as 16(21) with dT1 dC2 dT3 dC23 dC24 dC26) [SEQ 16(32)]	1.4 nM
UCUGAGGGAAACAGGUUUUGCUCCUCGGA (mixed, as 16(21) with ssH linker instead of 5' idT) [SEQ 16(30)]	4.4 nM
UCUGAGGGAAACAGGUUUUGCUCCUCGGA (ssRNA, as 16(2) + 5' and 3' idT (G14 printed lower case, probably typo)) [SEQ 16(4)]	17 nM
UCUGAGGGAAACAGGUUUUGCUCCUCGGA (mixed, as 16(4) with dC21) [SEQ 16(15)]	77 nM
UCUGAGGGAAACAGGUUUUGCUCCUCGGA (ssRNA, as 16(4) with 5' 40 kDa PEG (GL2-400TS)-ssH linker instead of 5' idT) [SEQ 16(8)]	42 nM
UUUGAAGGAAACAGGUUUUGCUCUUCGAG (ssRNA, 2'-F pyrimidines, 2'-OH purines) [SEQ 51]	85 nM
UCUGAGGGAAACAGGUUUUGCUCCUCGGA (mixed, as 16(4) with dT25 dC26) [SEQ 16(11)]	27 nM
B1	22 nM
B2	2.2 nM
UCUGAGGGAAACAGGUUUUGCUCCUCGGA (mixed, as 16(4) with dG14 dG15) [SEQ 16(6)]	5.9 nM
UCUGAGGGAAACAGGUUUUGCUCCUCGGA (mixed, as 16(22) with ssH linker instead of 5' idT) [SEQ 16(31)]	0.8 nM
UCUGAGGGAAACAGGUUUUGCUCCUCGGA (mixed, as 16(4) with dC12) [SEQ 16(20)]	44 nM

biological target: T1, Autotaxin (ENPP2, NPP2); assay: inhibition; NPP2 assay, pNP-TMP substrate, solution A (Ca, Mg), 37 C

Binder	IC50
B3	0.7 nM
B4	23 nM
B5	12 nM
B6	0.6 nM
B7	0.6 nM
B8	9.4 nM
B9	23 nM
B10	2.8 nM
B11	1.3 nM
B12	2.3 nM
B13	2.7 nM
B14	0.3 nM
B15	16 nM
B16	0.8 nM
B17	23 nM
B18	0.2 nM
